From patent publication US20210206855A1 (ADAGENE, published 2021)
Each block holds one binder with its values, some of them ahead of it.

Assays:
[1] = target: T1, full-length human CTLA4 on the cell surface (HEK293F transfectants); also activated human T cells, … (human, UniProt P16410 36-223); assay: flow cytometry on HEK293F cells transiently expressing full-length human CTLA4; Alexa Fluor 647 anti-human Fc
T1 construct: whole, on cells; used for every assay with human CTLA4 on cells; also called HEK293F/hCTLA-4; HEK293F/hCTLA4
T1 sequence (looked up): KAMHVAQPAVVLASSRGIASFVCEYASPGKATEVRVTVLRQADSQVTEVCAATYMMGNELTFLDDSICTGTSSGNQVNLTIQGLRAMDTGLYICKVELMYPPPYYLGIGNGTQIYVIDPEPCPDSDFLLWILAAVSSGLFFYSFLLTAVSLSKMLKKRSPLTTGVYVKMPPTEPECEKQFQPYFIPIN
Method: (§1) The affinities of the antibodies were also assessed against human and mouse CTLA4 transiently expressed on the surface of HEK293F cells (FIG. 2). Briefly, HEK293F cells were transfected with a plasmid expressing full-length human, monkey or mouse CTLA4 from a bicistronic IRES vector also encoding EGFP, and EGFP expression was used to identify the transfected cells. After 48 hours, the mammalian cell suspension (2×10⁵/well) was transferred to an Eppendorf tube, centrifuged, the supernatant was discarded, the cells were resuspended with 1 mL PBSA (to a density is 4×10⁶ cells/mL), and added to a 96 well plate. […] The cells were then washed once prior to analysis by flow cytometry (Beckman® CytoFlex).

[2] = target: T2, full-length mouse CTLA4 on the cell surface (HEK293F transfectants; also activated mouse T cells) (mouse, UniProt P09793 36-223); assay: flow cytometry on HEK293F cells transiently expressing full-length mouse CTLA4; Alexa Fluor 647 anti-human Fc
T2 construct: whole, on cells; also called mouse cell-surface exposed mouse CTLA4
Method: as §1

[3] = target: T3, recombinant human CTLA4 fused with human Fc and His tag (human, UniProt P16410 37-162, limits assumed, biotinylated where used in solution); assay: competition ELISA: plate-bound human CTLA4-Fc-His, biotinylated human CD80 as the blocked ligand, HRP-neutravidin
T3 construct: also called biotinylated human CTLA4 fused with human FC and His tag; recombinant human CTLA4 proteins; not shown: human Fc and His tag
T3 sequence (looked up): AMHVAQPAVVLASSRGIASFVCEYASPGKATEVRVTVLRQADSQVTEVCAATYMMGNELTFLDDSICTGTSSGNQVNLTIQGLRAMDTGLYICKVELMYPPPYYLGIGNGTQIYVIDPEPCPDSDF
Method: Plates were blocked with PBS supplemented with 2% (w/v) skim milk at 37° C. for 1 hour. […] Plates were washed four times, and 100 μL HRP-neutravidin (1:1000) was added to each well and incubated at 37° C. for 1 hour. Plates were washed as previously described, and 50 μL TMB substrate solution was added and incubated at room temperature for 5 minutes before the reaction was stopped by 50 μL sulfate acid (2M).

[4] = target: T4, recombinant human CTLA4-Fc (Sino Biological, 11159-H03H) (human, UniProt P16410 37-162); assay: ELISA, captured Fab
T4 construct: bought; whole entry named; Biotinylated in the yeast display assays; also called human CTLA4 fused with human FC fragment; biotinylated CTLA4-Fc; not shown: human Fc fragment
T4 sequence (looked up): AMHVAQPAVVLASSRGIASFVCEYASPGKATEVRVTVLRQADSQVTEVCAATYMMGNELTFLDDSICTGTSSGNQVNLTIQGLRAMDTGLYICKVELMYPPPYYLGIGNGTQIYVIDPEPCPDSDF

[5] = target: T5, cynomolgus monkey CTLA4 antigen fused with human FC fragment (cynomolgus monkey, UniProt G7PL88 36-161, fused to a human Fc fragment that is not in the letters); assay: ELISA, captured Fab
T5 sequence: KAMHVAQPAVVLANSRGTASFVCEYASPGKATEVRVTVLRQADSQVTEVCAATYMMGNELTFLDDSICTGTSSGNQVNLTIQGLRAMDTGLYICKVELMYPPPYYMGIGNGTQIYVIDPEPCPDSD

[6] = target: T6, mouse CTLA4 antigen fused with human FC fragment (mouse, UniProt P09793 36-162, limits assumed); assay: ELISA, captured Fab
T6 construct: not shown: human Fc fragment

[7] = target: T4, recombinant human CTLA4-Fc (Sino …); assay: ELISA, coated human CTLA4-Fc
Method: (§2) Plates were blocked with PBS supplemented with 3% non-fat milk at 37° C. for 1 hour. After washing, 100 μL of 3-fold serial dilutions of antibodies were added to each well. After incubation at 37° C. for 1 hour, plates were washed four times, and […] conjugated anti-human IgG (Fab specific) (1:6000 dilution) was added to each well. Plates were incubated at 37° C. for 1 hour, washed four times, and then 50 μL TMB substrate solution was added to each well, and the plate was incubated at room temperature. […] The EC₅₀ was evaluated by fitting the ELISA data using the asymmetrical sigmoidal (five-parameter logistic equation) model of GraphPad Prism 6 software.
The purified activatable antibodies were treated with the proteases which recognize the cleavage sequences, and were then tested to determine whether removal of the masking peptide restored their activity.

[8] = target: T4, recombinant human CTLA4-Fc (Sino …); assay: ELISA, coated human CTLA4-Fc, batch 1
Method: as §2

[9] = target: T4, recombinant human CTLA4-Fc (Sino …); assay: ELISA, coated human CTLA4-Fc, batch 2
Method: as §2

[10] = target: T4, recombinant human CTLA4-Fc (Sino …); assay: ELISA, coated human CTLA4-Fc, batch 1; Data Batch 1
Method: as §2

[11] = target: T4, recombinant human CTLA4-Fc (Sino …); assay: ELISA, coated human CTLA4-Fc (as Example 8)
Method: as §2

[12] = target: T4, recombinant human CTLA4-Fc (Sino …); assay: ELISA, coated human CTLA4-Fc (as Example 8); remark: listed apart in the source
Method: as §2

[13] = target: T4, recombinant human CTLA4-Fc (Sino …); assay: ELISA, coated human CTLA4-Fc (as Example 8); remark: listed apart in the source
Method: as §2

binding result [1]: binds | binding result [2]: binds | binding result [3]: binds
B1: TY21588 (antibody, V domains shown)
VH: EVQLVESGGGLVQPGGSLRLSCAASGYSISSGYHWDWIRQAPGKGLEWVSGISGYGGSTYYADSVKGRFTISRDNSKNTLYLQLNSLRAEDTAVYYCARHSYYGSGNFDYWGQGTLVTVSS
VL: DIQLTQSPSSLSASVGDRVTITCRASESVDFFGKSFLHWYQQKPGKAPKLLIYDASNLETGVPSRFSGSGSGTDFTLTISSLQPEDFATYYCQQSYSWPPTFGQGTKVEIKR

binding result [4]: binds | binding result [5]: binds | binding result [6]: binds
B2: B15732 (Fab, V domains shown)
VH: EVQLVESGGGLVQPGGSLRLSCAASGYSISSGYHWDWIRQAPGKGLEWVSGISGYGGSTYYADSVKGRFTISRDNSKNTLYLQLNSLRAEDTAVYYCARHSYYGSGNFDYWGQGTLVTVSS
VL: DIQLTQSPSSLSASVGDRVTITCRASESVDFFGKSFLHWYQQKPGKAPKLLIYDASNLETGVPSRFSGSGSGTDFTLTISSLQPEDFATYYCQQSYSWPPTFGQGTKVEIKR
notes: Fab hit from E. coli

LogEC50 [7]: -7.01 log M | EC50 [8]: 178 nM | LogEC50 [8]: -6.75 log M | EC50 [9]: 128 nM | LogEC50 [9]: -6.89 log M | EC50 [10]: 178 nM
B3: TY22404 (antibody, IgG1, V domains shown)
VH: EVQLVESGGGLVQPGGSLRLSCAASGYSISSGYHWSWIRQAPGKGLEWLARIDWDDDKYYSTSLKSRLTISRDNSKNTLYLQLNSLRAEDTAVYYCARSYVYFDYWGQGTLVTVSS
VL: EVGSYPNPSSDCVPYYYACAYSGRSAGGGGSPLGLAGSGGSDIQLTQSPSSLSASVGDRVTITCRASQSVRGRFLAWYQQKPGKAPKLLIYDASNRATGIPSRFSGSGSGTDFTLTISSLQPEDFATYYCQQSSSWPPTFGQGTKVEIKR
notes: also called masking peptide B13197

EC50 [11]: 68.4 nM | EC50 [12]: 122 nM | EC50 [13]: 117 nM
B4: TY22404 (peptide as listed in Tables 26 and 29) (antibody, V domains shown)
VH: EVQLVESGGGLVQPGGSLRLSCAASGYSISSGYHWSWIRQAPGKGLEWLARIDWDDDKYYSTSLKSRLTISRDNSKNTLYLQLNSLRAEDTAVYYCARSYVYFDYWGQGTLVTVSS
VL: EVGSYPNPSSDCVPYYYACAYSGRSAGGGGTPLGLAGSGGSDIQLTQSPSSLSASVGDRVTITCRASQSVRGRFLAWYQQKPGKAPKLLIYDASNRATGIPSRFSGSGSGTDFTLTISSLQPEDFATYYCQQSSSWPPTFGQGTKVEIKR
notes: kept apart from m68
